Laboratory results as given in the supplement of paper PMC9233669.
This sample holds only a part of the variants without activity.

What was measured:
biotinyl-Leu-oxazolone = assay: self-aminoacylation, catalytic enhancement (BLO) (fold over background); higher = more active; k-Seq, kA / k0A0; sequences stand for … in GGGAAUGGAUCCACAUCUACGAAUUC…UUCACUGCAGACUUGACGAAGCUG
In short: (§1)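 Each biotinyl-aminoacyl-oxazolone, at 2–1250 μM, was incubated with mutagenized RNA pools (0.43 μM) carrying a 21-nt variable region. The 50 μL reactions contained HEPES/NaCl/KCl/MgCl2/CaCl2 buffer with 5% acetonitrile at pH 6.9–7.0 and ran for 90 minutes at room temperature. After streptavidin capture, RNA was measured by qPCR in triplicate and by Illumina sequencing, and catalytic enhancement was calculated as median kA over the uncatalyzed rate from a pseudo-first-order fit of per-sequence fraction reacted.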

biotinyl-Met-oxazolone = assay: self-aminoacylation, catalytic enhancement (BMO) (fold over background); higher = more active; k-Seq, kA / k0A0; sequences stand for … in GGGAAUGGAUCCACAUCUACGAAUUC…UUCACUGCAGACUUGACGAAGCUG
In short: as §1

biotinyl-Ile-oxazolone = assay: self-aminoacylation, catalytic enhancement (BIO) (fold over background); higher = more active; k-Seq, kA / k0A0; sequences stand for … in GGGAAUGGAUCCACAUCUACGAAUUC…UUCACUGCAGACUUGACGAAGCUG
In short: as §1

biotinyl-Phe-oxazolone = assay: self-aminoacylation, catalytic enhancement (BFO) (fold over background); higher = more active; k-Seq, kA / k0A0; sequences stand for … in GGGAAUGGAUCCACAUCUACGAAUUC…UUCACUGCAGACUUGACGAAGCUG
In short: as §1

biotinyl-Val-oxazolone = assay: self-aminoacylation, catalytic enhancement (BVO) (fold over background); higher = more active; k-Seq, kA / k0A0; sequences stand for … in GGGAAUGGAUCCACAUCUACGAAUUC…UUCACUGCAGACUUGACGAAGCUG
In short: as §1

biotinyl-Trp-oxazolone = assay: self-aminoacylation, catalytic enhancement (BWO) (fold over background); higher = more active; k-Seq, kA / k0A0; sequences stand for … in GGGAAUGGAUCCACAUCUACGAAUUC…UUCACUGCAGACUUGACGAAGCUG
In short: as §1

Sequence | self-aminoacylation (biotinyl-Leu-oxazolone) | self-aminoacylation (biotinyl-Met-oxazolone) | self-aminoacylation (biotinyl-Ile-oxazolone) | self-aminoacylation (biotinyl-Phe-oxazolone) | self-aminoacylation (biotinyl-Val-oxazolone) | self-aminoacylation (biotinyl-Trp-oxazolone)
CCUCCCUUCAAGCAAUCGGUC [Fam1B.1 aminoacylation ribozyme variant] | 1.17 | 0.881 | 1.2 | 13.8 | 1.13 | 8.87
CCACACUUCAAGCAAUCGUUC [Fam1B.1 aminoacylation ribozyme variant] | 0.579 | 0.57 | 0.714 | 1.31 | 0.845 | 0.675
CCACACUUCAAGCCAUCGGUA [Fam1B.1 aminoacylation ribozyme variant] | 1.88 | 1.7 | 1.53 | 0.774 | 1.4 | 1.05
CCACACUUCGAGCAAUCGGAC [Fam1B.1 aminoacylation ribozyme variant] | 0.935 | 0.897 | 0.916 | 0.331 | 1.67 | 0.929
AUUCUCCUAGGUCAUCUGGUG [Fam2.2 aminoacylation ribozyme variant] | 5.43 | 4.5 | 3.03 | 30 | 2.91 | 4.16
AUUCACGUAGGUCAUUGGGUG [Fam2.2 aminoacylation ribozyme variant] | 5.11 | 4.43 | 3.18 | 25.2 | 4 | 4
AGGAUUGCUAAUAGUCGCAAG [Fam3.1 aminoacylation ribozyme variant] | 1.66 | 1.52 | 1.62 | 2.92 | 1.88 | 2.52
CCACAAUUCGAGCAAUCGGUC [Fam1B.1 aminoacylation ribozyme variant] | 1.07 | 0.985 | 1.28 | 0.736 | 1.58 | 1.08
AUUACCCUGUUCAUAGAGUGA [Fam2.1 aminoacylation ribozyme variant] | 14.6 | 15.6 | 6.48 | 110 | 6.44 | 18
CCAGAGUUCAAGCAAUCGGUC [Fam1B.1 aminoacylation ribozyme variant] | 1.36 | 1.21 | 1.36 | 1.42 | 1.2 | 1.72
AUAACUCUGGUCAUCGAGUGA [Fam2.1 aminoacylation ribozyme variant] | 5.36 | 5.54 | 3.06 | 19.5 | 3.04 | 6.33
CGACACUUCCAGCAAUCGGUC [Fam1B.1 aminoacylation ribozyme variant] | 1.19 | 1.14 | 1.56 | 0.915 | 1.49 | 1.15
CUACUUCAAGGAAUCGGUCUG [Fam1A.1 aminoacylation ribozyme variant] | 1.97 | 1.64 | 1.54 | 8.77 | 1.42 | 3.64
AUUACCCUGGUCAUGGAGUGU [Fam2.1 aminoacylation ribozyme variant] | 2.73 | 2.46 | 1.72 | 3.83 | 1.98 | 2.57
AAGUUUGCUCAUAGUAGCAAG [Fam3.1 aminoacylation ribozyme variant] | 0.817 | 0.727 | 0.928 | 1.58 | 1.09 | 0.786
AGGUUUGCUAAUAGUCGCAGG [Fam3.1 aminoacylation ribozyme variant] | 1.7 | 2.21 | 1.97 | 4.15 | 1.52 | 1.99
CCACACUUCAAGCUAUAGGUC [Fam1B.1 aminoacylation ribozyme variant] | 0.489 | 0.513 | 0.613 | 0.975 | 0.806 | 0.508
CUCCUUCAAAUAAUCGGUCUG [Fam1A.1 aminoacylation ribozyme variant] | 1.23 | 1.08 | 1.13 | 13.4 | 0.835 | 11.2
AAGUUUGAGAAUAGUCGCAAG [Fam3.1 aminoacylation ribozyme variant] | 1.25 | 1.2 | 1.48 | 2.05 | 1.29 | 1.59
AAGUUUGGUAAUAGUCGCAAG [Fam3.1 aminoacylation ribozyme variant] | 1.25 | 1.22 | 1.32 | 2.13 | 1.19 | 1.38
CAACACUUCAACCAAUCGGUC [Fam1B.1 aminoacylation ribozyme variant] | 2.04 | 1.58 | 1.28 | 45.6 | 1.36 | 28.2
AUUCACCUAGGUCCUCGGGGG [Fam2.2 aminoacylation ribozyme variant] | 2.98 | 2.98 | 2.8 | 9.54 | 2.85 | 2.42
AUUACCUUGGUUAUCGAGUGA [Fam2.1 aminoacylation ribozyme variant] | 7.92 | 8.15 | 3.66 | 44.2 | 4.03 | 9.73
AAGUCCGCUAAUAGUCGCAAG [Fam3.1 aminoacylation ribozyme variant] | 2.02 | 2.99 | 2.43 | 46.3 | 2.09 | 10.7
AACUUUCCUAAUAGUCGCAAG [Fam3.1 aminoacylation ribozyme variant] | 1.58 | 1.4 | 1.29 | 2.29 | 1.11 | 1.72
AUUCACCUGGGUCAUCGGGUG [Fam2.2 aminoacylation ribozyme variant] | 23.2 | 20.2 | 8.95 | 67.8 | 10.4 | 18.2

Sequence | self-aminoacylation (biotinyl-Leu-oxazolone) | self-aminoacylation (biotinyl-Met-oxazolone) | self-aminoacylation (biotinyl-Ile-oxazolone) | self-aminoacylation (biotinyl-Phe-oxazolone) | self-aminoacylation (biotinyl-Val-oxazolone) | self-aminoacylation (biotinyl-Trp-oxazolone)
AAUUUUGCUUAUAGUCGCAAG [Fam3.1 aminoacylation ribozyme variant] | 2.29 | 2.17 | 2.39 | 3.02 | 2.14 | 2.28
AAGAUAGCUAAUAGUCGCAAG [Fam3.1 aminoacylation ribozyme variant] | 1.82 | 1.57 | 1.63 | 2.4 | 1.34 | 1.34
CCACACUUCAAGCAAUCGGUG [Fam1B.1 aminoacylation ribozyme variant] | 7.2 | 5.19 | 3.68 | 17.1 | 3.68 | 5.45
CUAGUUCAAACAGUCGGUCUG [Fam1A.1 aminoacylation ribozyme variant] | 1.12 | 0.947 | 1.04 | 0.551 | 0.945 | 0.759
ACUGACCUAGGUCAUCGGGUG [Fam2.2 aminoacylation ribozyme variant] | 7.25 | 6.84 | 4.97 | 32.9 | 5 | 7.32
CUCCUUCAAACAAUCGGUCUG [Fam1A.1 aminoacylation ribozyme variant] | 2.04 | 1.29 | 1.1 | 59.2 | 1.2 | 32.3
CUAUUUCAAACAAACGGUCUG [Fam1A.1 aminoacylation ribozyme variant] | 0.72 | 0.923 | 0.961 | 1.2 | 0.971 | 0.586
AGUCACCUAGGUCUUCGGGUG [Fam2.2 aminoacylation ribozyme variant] | 8.46 | 6.75 | 6.51 | 56.4 | 6.48 | 8.99
CUACUUCAAACUAUGGGUCUG [Fam1A.1 aminoacylation ribozyme variant] | 0.922 | 0.789 | 0.917 | 0.588 | 0.813 | 0.592
CCACACUUCAAGCAAUAGUUC [Fam1B.1 aminoacylation ribozyme variant] | 0.55 | 0.501 | 0.703 | 1.21 | 0.644 | 0.431
CUACACUUCAAGCAAUCGGUA [Fam1B.1 aminoacylation ribozyme variant] | 0.755 | 0.709 | 0.739 | 1.37 | 0.65 | 0.846
CCUCACUUCAAACAAUCGGUC [Fam1B.1 aminoacylation ribozyme variant] | 2.35 | 1.51 | 1.21 | 93.7 | 1.25 | 37.3
AUACACCUAGAUCAUCGGGUG [Fam2.2 aminoacylation ribozyme variant] | 2.73 | 3 | 1.85 | 7.92 | 1.69 | 3.43
AAGUUUGCUGAUAGCCGCAAG [Fam3.1 aminoacylation ribozyme variant] | 0.736 | 0.91 | 0.846 | 1.49 | 0.968 | 0.586
AUUACCCUGGCCAUAGAGUGA [Fam2.1 aminoacylation ribozyme variant] | 4.73 | 4.15 | 2.6 | 5.34 | 2.51 | 6.32
AGUCACCUAUGUCAUCGGGUG [Fam2.2 aminoacylation ribozyme variant] | 4.74 | 4.37 | 3.74 | 31.8 | 3.19 | 4.85
AUUCACCAAGGUAAUCGGGUG [Fam2.2 aminoacylation ribozyme variant] | 7.71 | 5.69 | 3.5 | 42.2 | 3.19 | 4.8
ACUCACCUAGGUCAUCGGGUA [Fam2.2 aminoacylation ribozyme variant] | 27 | 19.9 | 11.4 | 157 | 10.1 | 14.9
CUACUUCUAACCAUCGGUCUG [Fam1A.1 aminoacylation ribozyme variant] | 0.653 | 0.659 | 0.703 | 0.859 | 0.761 | 0.45
CUACUACAAACAAGCGGUCUG [Fam1A.1 aminoacylation ribozyme variant] | 1.25 | 1.1 | 1.11 | 0.606 | 1.2 | 0.883
CCUCACCUCAAGCAAUCGGUC [Fam1B.1 aminoacylation ribozyme variant] | 0.963 | 0.79 | 1.02 | 4.38 | 1.3 | 2.12
UAGUUUGCGAAUAGUCGCAAG [Fam3.1 aminoacylation ribozyme variant] | 1.75 | 1.68 | 1.82 | 2.28 | 1.1 | 1.73
AUUACACCGGUCAUCGAGUGA [Fam2.1 aminoacylation ribozyme variant] | 6.36 | 5.76 | 2.95 | 29.4 | 2.96 | 5.95
AUUCACCUAAGUCGUCGGGUG [Fam2.2 aminoacylation ribozyme variant] | 2.55 | 2.18 | 1.88 | 10.1 | 1.87 | 2.02
CCACACUUGAAGCAAUCGGGC [Fam1B.1 aminoacylation ribozyme variant] | 1.57 | 1.34 | 1.55 | 5.71 | 2.63 | 2.26
